Reference: PMC4162137

Legend:
[1] = target: TMPRSS2-ERG3 encoded protein (Type I ERG) fused to an N- or C-terminal fragment of Venus (human) (UniProt P11308)
[2] = target: TMPRSS2-ERG3 encoded protein (Type I ERG) fused to an N- or C-terminal fragment of Venus (human) (UniProt P11308); test: split reporter (BiFC, NanoBiT); BiFC with split Venus in HEK293 cells, 24 hours after transfection, percent of fluorescent cells counted by flow cytometry
[3] = target: TMPRSS2-ERG8 encoded protein (Type II ERG) fused to an N- or C-terminal fragment of Venus (human); test: as above
Sequence of TMPRSS2-ERG8 encoded protein (Type II ERG) fused to an N- or C-terminal fragment of Venus (human) (P11308 whole entry, the tested form may be a part): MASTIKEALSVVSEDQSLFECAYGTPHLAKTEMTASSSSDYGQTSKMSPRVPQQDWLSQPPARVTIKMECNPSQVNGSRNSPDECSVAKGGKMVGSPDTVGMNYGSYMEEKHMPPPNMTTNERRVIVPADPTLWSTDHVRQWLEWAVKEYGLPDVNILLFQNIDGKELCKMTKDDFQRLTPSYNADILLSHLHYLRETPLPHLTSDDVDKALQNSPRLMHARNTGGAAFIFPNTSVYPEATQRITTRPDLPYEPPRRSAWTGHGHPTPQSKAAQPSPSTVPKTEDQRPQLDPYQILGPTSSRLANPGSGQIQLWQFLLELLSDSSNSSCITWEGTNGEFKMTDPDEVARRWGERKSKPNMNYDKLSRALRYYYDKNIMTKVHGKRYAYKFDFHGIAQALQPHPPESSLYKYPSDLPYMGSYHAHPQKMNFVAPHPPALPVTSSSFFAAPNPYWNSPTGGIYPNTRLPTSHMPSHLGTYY

| Substance | mef2c enhancer luciferase reporter in HEK293 cells: 40 ng TM-ERG3 with 0-40 ng TM-ERG8 plasmid; reduction in luciferase activity against TM-ERG3 alone (at 20 ng or 40 ng TM-ERG8) (% reduction in luciferase activity) [1] | percent of cells positive for fluorescence (% cells positive for fluorescence) [2] | percent of cells positive for fluorescence (% positive cells) [3] | percent of cells positive for fluorescence (% cells positive for fluorescence) [3] |
| --- | --- | --- | --- | --- |
| TMPRSS2-ERG8 encoded protein (Type II ERG) fused to an N- or C-terminal fragment of Venus (natural protein) | 50 | 12.7 | 5.4 |  |
| TMPRSS2-ERG3 encoded protein (Type I ERG) fused to an N- or C-terminal fragment of Venus (from UniProt P11308-4 33-479) (natural protein) |  |  |  | 10.1 |
